Assay results taken from patent US20220332804A1 (CSL INNOVATION, published 2022).

T1: human complement C2 (human, UniProt P06681 21-752)
T1 sequence: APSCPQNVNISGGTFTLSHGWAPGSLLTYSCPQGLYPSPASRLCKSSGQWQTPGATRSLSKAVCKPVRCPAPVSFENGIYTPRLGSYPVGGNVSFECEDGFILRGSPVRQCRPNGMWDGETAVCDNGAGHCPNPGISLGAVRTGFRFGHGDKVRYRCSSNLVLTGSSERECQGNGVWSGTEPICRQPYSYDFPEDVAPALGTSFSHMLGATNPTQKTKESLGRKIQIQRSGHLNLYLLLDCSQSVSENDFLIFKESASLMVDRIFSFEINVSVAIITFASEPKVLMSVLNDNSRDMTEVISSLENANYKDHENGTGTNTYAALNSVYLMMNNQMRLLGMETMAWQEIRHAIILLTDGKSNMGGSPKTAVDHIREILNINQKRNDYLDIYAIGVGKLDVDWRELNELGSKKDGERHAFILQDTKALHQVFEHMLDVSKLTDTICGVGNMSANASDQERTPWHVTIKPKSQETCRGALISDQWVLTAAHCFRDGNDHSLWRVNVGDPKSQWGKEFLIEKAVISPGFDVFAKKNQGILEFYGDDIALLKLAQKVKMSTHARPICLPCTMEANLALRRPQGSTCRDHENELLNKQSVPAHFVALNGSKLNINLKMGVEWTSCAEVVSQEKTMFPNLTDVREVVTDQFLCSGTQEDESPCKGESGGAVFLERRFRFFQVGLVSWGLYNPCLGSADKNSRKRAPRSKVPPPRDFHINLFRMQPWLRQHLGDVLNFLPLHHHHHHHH

T2: cynomolgus monkey C2 (cynomolgus monkey, UniProt G8F3W0 21-752)
T2 sequence: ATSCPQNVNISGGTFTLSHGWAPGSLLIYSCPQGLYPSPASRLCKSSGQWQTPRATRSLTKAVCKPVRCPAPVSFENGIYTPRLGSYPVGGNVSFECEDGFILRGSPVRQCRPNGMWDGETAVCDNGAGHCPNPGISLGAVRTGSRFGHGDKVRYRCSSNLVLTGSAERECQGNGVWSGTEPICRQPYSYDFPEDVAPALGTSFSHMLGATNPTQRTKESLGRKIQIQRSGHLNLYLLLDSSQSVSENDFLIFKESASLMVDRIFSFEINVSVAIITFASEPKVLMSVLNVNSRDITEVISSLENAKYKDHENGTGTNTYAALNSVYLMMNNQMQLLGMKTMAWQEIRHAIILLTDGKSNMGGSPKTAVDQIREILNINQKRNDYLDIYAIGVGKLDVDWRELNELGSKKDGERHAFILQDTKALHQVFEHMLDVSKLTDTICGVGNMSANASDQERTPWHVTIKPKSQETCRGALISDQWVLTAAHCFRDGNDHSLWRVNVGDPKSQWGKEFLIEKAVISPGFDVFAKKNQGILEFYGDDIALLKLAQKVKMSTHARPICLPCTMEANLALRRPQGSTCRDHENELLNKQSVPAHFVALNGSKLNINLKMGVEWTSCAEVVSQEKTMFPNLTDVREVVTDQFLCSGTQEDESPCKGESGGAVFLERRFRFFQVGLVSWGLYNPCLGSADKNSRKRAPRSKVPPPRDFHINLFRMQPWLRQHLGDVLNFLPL

T3: mouse C2 (mouse, UniProt P21180 19-760, limits assumed)
T3 sequence (looked up): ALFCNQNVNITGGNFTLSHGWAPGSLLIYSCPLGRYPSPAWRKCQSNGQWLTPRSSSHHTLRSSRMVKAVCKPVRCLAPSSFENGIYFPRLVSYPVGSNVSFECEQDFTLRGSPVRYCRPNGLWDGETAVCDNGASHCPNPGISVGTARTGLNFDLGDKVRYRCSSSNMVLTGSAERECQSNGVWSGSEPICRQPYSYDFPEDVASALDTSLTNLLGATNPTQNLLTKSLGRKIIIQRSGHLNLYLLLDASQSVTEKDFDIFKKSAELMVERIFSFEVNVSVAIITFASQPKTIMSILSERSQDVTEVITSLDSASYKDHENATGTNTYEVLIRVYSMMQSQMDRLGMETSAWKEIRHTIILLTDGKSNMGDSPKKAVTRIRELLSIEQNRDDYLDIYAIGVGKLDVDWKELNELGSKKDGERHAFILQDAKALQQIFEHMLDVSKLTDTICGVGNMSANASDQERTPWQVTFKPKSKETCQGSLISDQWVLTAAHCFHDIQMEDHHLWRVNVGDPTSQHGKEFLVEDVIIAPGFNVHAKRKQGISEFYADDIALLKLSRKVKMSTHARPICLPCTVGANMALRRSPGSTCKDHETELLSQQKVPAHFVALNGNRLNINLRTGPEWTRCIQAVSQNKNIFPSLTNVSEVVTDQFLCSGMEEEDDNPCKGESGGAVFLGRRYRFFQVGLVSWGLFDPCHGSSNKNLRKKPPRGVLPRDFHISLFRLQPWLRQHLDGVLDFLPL

B1: RF16-214 (antibody, V domains shown)
VH: EVQLLESGGGLVQPGGSLRLSCAASGFTFSWYQMMWVRQAPGKGLEWVSRIYPSGGGTAYADSVKGRFTISRDNSKNTLYLQMNSLRAEDTAVYYCARDAGYGDNWGQGTLVTVSS
VL: QSALTQPPSVSVSPGQTASITCSGDKLGEKYASWYQQKAGQSPVMVIYQDRKRPSGIPERFSGSNSGNTATLTISGTQAMDEADYYCQAWDTRAVVFGGGTKLTVLG
B2: RF16-226 (antibody)
heavy: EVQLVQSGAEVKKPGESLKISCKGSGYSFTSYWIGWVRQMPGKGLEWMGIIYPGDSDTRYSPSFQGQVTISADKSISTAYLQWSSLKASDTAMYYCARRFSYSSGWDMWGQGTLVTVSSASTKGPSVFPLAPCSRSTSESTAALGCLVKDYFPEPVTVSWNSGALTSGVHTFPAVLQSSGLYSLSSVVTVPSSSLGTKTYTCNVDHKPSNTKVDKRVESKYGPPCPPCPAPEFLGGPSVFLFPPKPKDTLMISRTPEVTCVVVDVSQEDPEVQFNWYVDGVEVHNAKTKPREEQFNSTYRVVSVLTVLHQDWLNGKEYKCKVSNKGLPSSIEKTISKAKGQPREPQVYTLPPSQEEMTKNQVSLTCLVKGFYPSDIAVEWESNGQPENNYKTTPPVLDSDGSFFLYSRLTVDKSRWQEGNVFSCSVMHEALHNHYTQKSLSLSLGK
light: SYELTQPPSVSVSPGQTARITCSGDALTSKYVAWYQQKSGLAPLLVIYEDTRRPSGIPAKFSGSSSGSVATLTISGAHGDDEADYYCYSTDASGHQRVFGGGTKLTVLSQPKAAPSVTLFPPSSEELQANKATLVCLISDFYPGAVTVAWKADGSPVKAGVETTKPSKQSNNKYAASSYLSLTPEQWKSHRSYSCQVTHEGSTVEKTVAPTECS

Experiments:
human complement C2 [1] = target: T1, human complement C2; assay: cell-based or functional assay
human complement C2 [2] = target: T1, human complement C2; assay: cell-based or functional assay; remark: listed apart in the source
cynomolgus monkey C2 [3] = target: T2, cynomolgus monkey C2; assay: cell-based or functional assay
cynomolgus monkey C2 [4] = target: T2, cynomolgus monkey C2; assay: SPR, mAb captured, cyno C2 analyte, pH 6.0
Procedure: (§1) Surface plasmon resonance (SPR, Biacore) was used for all binding affinity analyses. In brief, goat anti-human IgG was directly immobilised onto the carboxymethyl dextran surface of CM5 sensorchips to approximately 12,000 RU using standard NHS/EDC chemistry at pH 5. The immobilised antibody surface was pre-conditioned with ten injections of polyclonal human IgG (Privigen 60 s) prepared at 1 μg/mL. Ligands (anti-C2 mAbs) were captured at the beginning of each cycle as described below. An adjacent spot or flow cell in which only Polyclonal IgG was capture was used as a reference surface. The goat anti-human IgG Fc antibody surface was regenerate in 100 mM H3PO4, injected for 45 seconds at the end of each cycle. Experiments were performed at 37° C. and the flow rate of each experiment was kept constant at 30 μL/min.
(§2) In addition to human C2, the pH dependent anti-C2 antibodies were also tested for their ability to bind to C2 from other mammalian species using the SPR methods described above in order to identify suitable surrogate species for in vivo testing. The antibodies were tested for binding at neutral pH against C2 from cynomolgus monkeys, mice, dogs, rabbits, rats, pigs, and sheep.

cynomolgus monkey C2 [5] = target: T2, cynomolgus monkey C2; assay: SPR, mAb captured, cyno C2 analyte, pH 7.3
mouse C2 = target: T3, mouse C2; assay: SPR, mAb captured, mouse C2 analyte, pH 7.3
Procedure: as §1, §2

human complement C2 [6] = target: T1, human complement C2; assay: SPR, mAb captured, C2 analyte, HBS-EP, pH 6.0
Procedure: as §1
(§3) The pH dependent anti-C2 antibodies and their germlined versions were tested for their affinity to C2 at pH 7.3 (neutral pH) and pH 6.0 (early endosome pH) using the SPR methods described above in HBS-EP buffer.

human complement C2 [7] = target: T1, human complement C2; assay: SPR, mAb captured, C2 analyte, HBS-EP, pH 7.3
Procedure: as §1, §3

human complement C2 [8] = target: T1, human complement C2; assay: SPR, mAb captured, C2 analyte, MHAs buffer, pH 7.3
Procedure: as §1
(§4) This buffer contains ammonium sulfate instead of sodium chloride.

human complement C2 [9] = target: T1, human complement C2; assay: SPR, mAb captured, C2 analyte, MHAs buffer, pH 5.8, steady state
Procedure: as §1, §4

human complement C2 [10] = target: T1, human complement C2; assay: SPR, mAb captured, C2 analyte, MHAs buffer, pH 6.0, steady state
Procedure: as §1, §4

Row | Binder | IC50, inhibition of human classical complement pathway (Wieslab assay) (human complement C2 [1]) | IC50, inhibition of human lectin complement pathway (Wieslab assay) (human complement C2 [1]) | IC50, inhibition of human classical pathway (hemolysis assay) (human complement C2 [2]) | IC50, inhibition of cyno classical pathway (hemolysis assay) (cynomolgus monkey C2 [3]) | Kd (cynomolgus monkey C2 [4]) | Kd (cynomolgus monkey C2 [5]) | Kd (mouse C2) | Kd (human complement C2 [6]) | Kd (human complement C2 [7]) | Kd (human complement C2 [8]) | Kd (human complement C2 [9]) | Kd (human complement C2 [10]) | IC50, inhibition of cyno classical pathway (hemolysis assay), mean of three experiments (cynomolgus monkey C2 [3])
1 | B1 | 18.6 nM | 7.69 nM | 241 nM | 630 nM | 137 nM | 46.8 nM | 885 nM | 148 nM | 31 nM | 233 nM | 4.67 µM | 2170 nM | 
2 | B2 | 12.5 nM | 5.6 nM | 284 nM |  | 141 nM | 5.1 nM | 160 nM | 114 nM | 11.6 nM | 44 nM | 5.51 µM | 2230 nM | 124 nM
